Assay results taken from patent publication US20120276102A1 (Pfizer, published 2012).
Substitutions are numbered along the chain they refer to.

T1: human gamma (γ) common chain expressed on CHO cells (human, UniProt P31785 23-369)
T1 construct: whole, on cells; Control protein; also called human IL-2R-γ common subunit; human γ-common
T1 sequence (looked up): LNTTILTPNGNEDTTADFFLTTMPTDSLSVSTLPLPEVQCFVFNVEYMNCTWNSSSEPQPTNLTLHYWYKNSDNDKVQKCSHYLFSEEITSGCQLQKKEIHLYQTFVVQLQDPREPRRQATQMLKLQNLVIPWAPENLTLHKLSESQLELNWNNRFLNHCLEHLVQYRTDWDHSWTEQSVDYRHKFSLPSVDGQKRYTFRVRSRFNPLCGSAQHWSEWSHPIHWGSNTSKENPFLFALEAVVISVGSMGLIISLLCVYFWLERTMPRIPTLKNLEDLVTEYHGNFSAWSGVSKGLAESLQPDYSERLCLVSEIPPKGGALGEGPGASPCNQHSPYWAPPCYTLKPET

B1: AbP (antibody, human IgG1, V domains shown)
VH: QVQLQESGPGLVKPSETLSLTCAVSGYSISSGYYWGWIRQPPGKGLEWIGSISHTGNTYYNPPLKSRVTISVDTSKNQFSLKLSSVTAADTAVYYCARGGGISRPEYWGQGTLVTVSS
VL: SSELTQDPAVSVALGQTVRITCQGDSLRTYYASWYQQKPGQAPVLVIYGKHKRPSGIPDRFSGSSSGNTASLTITGAQAEDEADYYCVSRSAKGNPHVLFGGGTQLTVL
notes: CDR3 graft, residue limits derived as for m29; also called VHP/VL20; VHPTM/VL20
B2: AbO (antibody, human IgG1, V domains shown)
VH: B1 VH
VL: B1 VL with S89T
notes: CDR3 graft, residue limits derived as for m29; also called VHP/VL16; VHPTM/VL16
B3: AbU (antibody, human IgG1, V domains shown)
VH: B1 VH
VL: B1 VL with V88T, S89T, A92N
notes: CDR3 graft, residue limits derived as for m29; also called VHP/VL25; VHPTM/VL25
B4: AbQ (antibody, human IgG1, V domains shown)
VH: B1 VH with G99F, G100M, I102F, S103G
VL: B1 VL with S89A, A92V, K93V
notes: CDR3 graft, residue limits derived as for m29; also called VH3/VL2; VH3DM/VL2
B5: AbT (antibody, human IgG1, V domains shown)
VH: B1 VH
VL: B1 VL with S89A, A92N
notes: CDR3 graft, residue limits derived as for m29; also called VHP/VL9; VHPTM/VL9
B6: AbS (antibody, V domains shown)
VH: B1 VH
VL: B1 VL with V88M, A92I, K93W
notes: CDR3 graft, residue limits derived as for m29; also called VHP/VL6; VHPTM/VL6
B7: AbR (antibody, human IgG1, V domains shown)
VH: B1 VH with G99F, G100M, I102F, S103G
VL: B1 VL with S89T, A92V
notes: CDR3 graft, residue limits derived as for m29; also called VH3/VL18; VH3DM/VL18
B8: parental 18A5 antibody (antibody, V domains shown)
VH: B1 VH with P14T, Q110K
VL: SSELTQDPPVSVALGQTVTLTCQGDSLRTYYASWYQQKSGQAPILLLYGKHKRPSGIPDRFSGSTSGDTASLTITGAQAEDEADYYCNSRDSSGNPHVLFGGGTQLTVL
notes: also called 18A5 IgG

Target: T2, rat IL-21R expressed on cells (rat)
T2 construct: whole, on cells
Assay: cell ELISA, CHO cells

First: B1
Second: B2
The “A450 (13 nM Ab)” value of the first is lower: 1.03 A450 for the first, 1.1 A450 for the second.

Compared with B3, B4 is higher in “A450 (13 nM Ab)” value: 0.927 A450 for the first, 1.16 A450 for the second.

Compared with B5, B6 is higher in “A450 (13 nM Ab)” value: 0.994 A450 for the first, 1.17 A450 for the second.

In the case of B7, the “A450 (13 nM Ab)” value is reported as 1.11 A450.

Target: T1, human gamma (γ) common chain expressed …
Assay: cell ELISA, CHO cells

First: B1
Second: B2
The “A450 (13 nM Ab)” value of the first is higher: 0.112 A450 for the first, 0.108 A450 for the second.

Going from B3 to B4, the “A450 (13 nM Ab)” value rises from 0.104 A450 to 0.125 A450.

First: B5
Second: B6
The “A450 (13 nM Ab)” value of the first is lower: 0.102 A450 for the first, 0.118 A450 for the second.

With B7 the “A450 (13 nM Ab)” value was 0.109 A450.

Target: T3, human IL-21R expressed on cells (human, UniProt Q9HBE5 20-538)
Assay: cell-based or functional assay

T3 sequence (Q9HBE5 20-538 limits assumed): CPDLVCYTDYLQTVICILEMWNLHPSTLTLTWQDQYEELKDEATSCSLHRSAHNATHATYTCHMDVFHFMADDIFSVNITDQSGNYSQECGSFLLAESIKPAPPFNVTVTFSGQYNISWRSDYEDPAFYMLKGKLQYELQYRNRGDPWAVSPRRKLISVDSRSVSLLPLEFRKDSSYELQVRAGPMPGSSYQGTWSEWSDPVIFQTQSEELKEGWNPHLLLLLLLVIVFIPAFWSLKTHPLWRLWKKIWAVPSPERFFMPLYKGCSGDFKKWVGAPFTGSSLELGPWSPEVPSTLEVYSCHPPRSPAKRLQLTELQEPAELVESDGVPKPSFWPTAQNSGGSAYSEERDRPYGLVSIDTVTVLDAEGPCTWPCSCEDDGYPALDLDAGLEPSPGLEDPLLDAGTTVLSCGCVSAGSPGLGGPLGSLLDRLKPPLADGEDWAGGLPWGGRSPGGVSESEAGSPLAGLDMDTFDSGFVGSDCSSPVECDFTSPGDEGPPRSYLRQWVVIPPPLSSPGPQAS

B1 and B2 are within 1.5-fold of each other in “Human IL-21R-BaF3 Proliferation IC50” value: 0.75 nM for the first, 0.52 nM for the second.

B3 and B4 are within 1.5-fold of each other in “Human IL-21R-BaF3 Proliferation IC50” value: 0.73 nM for the first, 0.68 nM for the second.

Compared with B5, B6 is 2.3-fold higher in “Human IL-21R-BaF3 Proliferation IC50” value: 0.67 nM for the first, 1.53 nM for the second.

B7 was tested, and the “Human IL-21R-BaF3 Proliferation IC50” value was 0.87 nM.

B1 and B2 are within 1.5-fold of each other in “Human IL-21R-TF1 Proliferation IC50” value: 3.48 nM for the first, 2.91 nM for the second.

B3 and B4 are within 1.5-fold of each other in “Human IL-21R-TF1 Proliferation IC50” value: 3.13 nM for the first, 4.62 nM for the second.

First: B5
Second: B6
The “Human IL-21R-TF1 Proliferation IC50” value of the first is 1.5-fold lower: 3.26 nM for the first, 5 nM for the second.

B7 was tested, and the “Human IL-21R-TF1 Proliferation IC50” value was 3.94 nM.

Target: T4, murine IL-21R expressed on cells (murine, UniProt Q9JHX3 20-529)
Assay: cell-based or functional assay

T4 sequence (Q9JHX3 20-529 limits assumed): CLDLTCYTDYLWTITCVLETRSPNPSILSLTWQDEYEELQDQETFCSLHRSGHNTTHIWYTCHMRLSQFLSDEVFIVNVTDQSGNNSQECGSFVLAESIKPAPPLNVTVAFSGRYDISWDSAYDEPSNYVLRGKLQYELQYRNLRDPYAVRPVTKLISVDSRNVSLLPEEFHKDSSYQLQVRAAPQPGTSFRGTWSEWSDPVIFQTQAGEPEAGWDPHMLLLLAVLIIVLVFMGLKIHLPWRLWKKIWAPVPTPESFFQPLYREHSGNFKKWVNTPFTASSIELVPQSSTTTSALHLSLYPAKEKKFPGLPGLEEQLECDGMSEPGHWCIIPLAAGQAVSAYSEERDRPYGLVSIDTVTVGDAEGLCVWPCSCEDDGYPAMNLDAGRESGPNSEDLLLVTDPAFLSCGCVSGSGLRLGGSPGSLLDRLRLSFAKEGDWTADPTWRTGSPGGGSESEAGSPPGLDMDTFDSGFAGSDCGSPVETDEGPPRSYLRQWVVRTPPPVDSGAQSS

Going from B1 to B2, the “Murine IL-21R-BaF3 Proliferation IC50” value rises from 0.03 nM to 0.065 nM (2.2-fold).

B3 and B4 are within 1.5-fold of each other in “Murine IL-21R-BaF3 Proliferation IC50” value: 0.184 nM for the first, 0.153 nM for the second.

Compared with B5, B6 is 2.3-fold lower in “Murine IL-21R-BaF3 Proliferation IC50” value: 0.093 nM for the first, 0.04 nM for the second.

With B7 the “Murine IL-21R-BaF3 Proliferation IC50” value was 0.302 nM.

Target: T3, human IL-21R expressed on cells
Assay: cell-based or functional assay
Remark: another data set of the same source

Compared with B8, B3 is 14-fold lower in “Neutralization of B cell proliferation IC50” value: 1.86 nM for the first, 0.13 nM for the second.

B4 and B5 are within 1.5-fold of each other in “Neutralization of B cell proliferation IC50” value: 0.16 nM for the first, 0.14 nM for the second.

Going from B6 to B7, the “Neutralization of B cell proliferation IC50” value falls from 0.44 nM to 0.22 nM (2-fold).

Target: T3, human IL-21R expressed on cells
Assay: cell-based or functional assay
Remark: another data set of the same source

First: B1
Second: B2
The “Neutralization of human primary T cell Proliferation IC50” value of the first is 3-fold lower: 0.02 nM for the first, 0.06 nM for the second.

Going from B8 to B3, the “Neutralization of human primary T cell Proliferation IC50” value falls from 1.42 nM to 0.03 nM (47-fold).

First: B4
Second: B5
The “Neutralization of human primary T cell Proliferation IC50” value of the first is 2.7-fold higher: 0.08 nM for the first, 0.03 nM for the second.

Compared with B6, B7 is 1.5-fold lower in “Neutralization of human primary T cell Proliferation IC50” value: 0.06 nM for the first, 0.04 nM for the second.

Target: T4, murine IL-21R expressed on cells
Assay: cell-based or functional assay
Remark: another data set of the same source

Compared with B2, B8 is higher in “Neutralization of murine primary T cell Proliferation IC50” value: 4.92 nM for the first, > 85 nM for the second.

First: B3
Second: B4
The “Neutralization of murine primary T cell Proliferation IC50” value of the first is 2.1-fold higher: 1.79 nM for the first, 0.85 nM for the second.

First: B5
Second: B6
The “Neutralization of murine primary T cell Proliferation IC50” value of the first is 30-fold higher: 0.61 nM for the first, 0.02 nM for the second.

In the case of B7, the “Neutralization of murine primary T cell Proliferation IC50” value is reported as 0.13 nM.

Target: T5, human IL-21R extracellular domain His-Flag fusion protein (human, UniProt Q9HBE5 20-232)
T5 construct: Biotinylated in the HTRF screen; also called hIL-21R-H/F; human IL-21R-H/F
Assay: SPR, Ab captured on anti-human IgG, replicate experiment
Method: The kinetics of binding of anti-IL-21R antibodies to human and murine IL-21R-H/F was tested on a BIACORE™ surface plasmon resonance instrument. Anti-human IgG antibodies (Invitrogen Corporation) were immobilized onto a research-grade carboxy-methyl-dextran chip (CM5) using standard amine coupling. The surface was activated with EDC/NHS for 7 min at a flow of 20 μl/min. The first flow cell was used as a reference surface to correct for bulk refractive index, matrix effects, and nonspecific binding. The anti-human-Fc antibody was diluted to 20 μg/ml in 10 mM sodium acetate buffer (pH 5.0), and 2950-3405 resonance units (RU) were captured on each of the four flow cells. Remaining activated groups were blocked with 1.0 M ethanolamine-HCl (pH 8.5).
Anti-IL-21R antibodies were diluted to 0.1-0.2 μg/ml in HBS/EP buffer supplemented with 0.2% bovine serum albumin and loaded onto the BIACORE™ chip. Following a brief washing period, solutions of 0-100 nM human IL-21R-H/F or 10-500 nM murine IL-21R-H/F were injected over the chip at a flow rate of 50 μl/min. The association phase was run for 3 min for human and murine IL-21R kinetics, and the dissociation phase was monitored for 15 min for hIL-21R and for 5 min for mIL-21R, followed by two 10 μl injections and one 30 μl injection of glycine (pH 1.5), to regenerate a fully active capturing surface. All binding experiments were done at 25° C. in HBS/EP buffer, and the sample rack was kept at 15° C. Blank and buffer effects were subtracted for each sensorgram using double referencing.

T5 sequence (Q9HBE5 20-232): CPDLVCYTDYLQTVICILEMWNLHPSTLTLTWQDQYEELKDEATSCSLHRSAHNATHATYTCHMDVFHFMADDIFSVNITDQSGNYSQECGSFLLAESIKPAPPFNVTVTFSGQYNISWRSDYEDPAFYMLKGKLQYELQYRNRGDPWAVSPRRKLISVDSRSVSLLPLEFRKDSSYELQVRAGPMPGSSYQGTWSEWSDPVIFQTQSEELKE

Going from B1 to B8, the Kd rises from 0.436 nM to 4.4 nM (10-fold).

Compared with B3, B4 is 1.5-fold lower in Kd: 0.329 nM for the first, 0.213 nM for the second.

First: B5
Second: B6
The Kd of the first is 5.6-fold lower: 0.272 nM for the first, 1.51 nM for the second.

In the case of B7, the Kd is reported as 0.394 nM.

Compared with B1, B8 is 13-fold higher in koff: 0.000102 s⁻¹ for the first, 0.00134 s⁻¹ for the second.

B3 and B4 are within 1.5-fold of each other in koff: 7.83e-05 s⁻¹ for the first, 9.34e-05 s⁻¹ for the second.

Compared with B5, B6 is 4.1-fold higher in koff: 7.42e-05 s⁻¹ for the first, 0.000305 s⁻¹ for the second.

B7 was tested, and the koff was 9.76e-05 s⁻¹.

B1 and B8 are within 1.5-fold of each other in kon: 233000 M⁻¹ s⁻¹ for the first, 304000 M⁻¹ s⁻¹ for the second.

B3 and B5 are within 1.5-fold of each other in kon: 238000 M⁻¹ s⁻¹ for the first, 273000 M⁻¹ s⁻¹ for the second.

B6 and B7 are within 1.5-fold of each other in kon: 202000 M⁻¹ s⁻¹ for the first, 248000 M⁻¹ s⁻¹ for the second.

Target: T3, human IL-21R expressed on cells
Assay: cell-based ELISA on CHO cells transiently expressing human IL-21R; HRP anti-human IgG, A450

First: B1
Second: B2
The “EC50 (read off the curve)” value of the first is 2.5-fold higher: ~1 nM for the first, ~0.4 nM for the second.

Compared with B8, B3 is 3.3-fold higher in “EC50 (read off the curve)” value: ~0.6 nM for the first, ~2 nM for the second.

B4 and B5 are within 1.5-fold of each other in “EC50 (read off the curve)” value: ~0.9 nM for the first, ~1 nM for the second.

With B7 the “EC50 (read off the curve)” value was ~0.5 nM.

Target: T6, cynomolgus monkey IL-21R expressed on cells (cynomolgus monkey, UniProt G7Q0S8 41-559)
T6 construct: whole, on cells
Assay: cell-based ELISA on CHO cells transiently expressing cynomolgus monkey IL-21R; HRP anti-human IgG, A450

B1 and B2 are within 1.5-fold of each other in “EC50 (read off the curve)” value: ~0.7 nM for the first, ~0.5 nM for the second.

First: B8
Second: B3
The “EC50 (read off the curve)” value of the first is 1.7-fold lower: ~0.4 nM for the first, ~0.7 nM for the second.

B4 and B5 are within 1.5-fold of each other in “EC50 (read off the curve)” value: ~0.7 nM for the first, ~0.6 nM for the second.

First: B6
Second: B7
The “EC50 (read off the curve)” value of the first is 2-fold lower: ~0.5 nM for the first, ~1 nM for the second.

Target: T1, human gamma (γ) common chain expressed …
Assay: cell-based ELISA on CHO cells transiently expressing human gamma common chain; HRP anti-human IgG, A450
In short: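 Binding read by TMB colour after HRP anti-human IgG (1 hr, RT), stopped with H₂SO₄. Before that, IgG-containing conditioned media, serially diluted in 5% milk/PBS/CaMg, were applied 1 hr at RT to CHO-PA-Dukx cells transfected 48 hr earlier.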

B1: no binding (tested: 40 nM).
B2: no binding (tested: 40 nM).
B8: no binding (tested: 13 nM).
B3: no binding (tested: 40 nM).
B4: no binding (tested: 40 nM).
B5: no binding (tested: 40 nM).
B6: no binding (tested: 40 nM).
B7: no binding (tested: 40 nM).
